Consider six molecules from patent publication US20140086913A1 (Gilead, published 2014).

The labels stand for the following.
T1: mouse DDR1 stably expressed on HEK293 cells (mouse, UniProt Q03146 20-911)
T1 construct: whole, on cells; also called murine DDR1
T1 sequence (looked up): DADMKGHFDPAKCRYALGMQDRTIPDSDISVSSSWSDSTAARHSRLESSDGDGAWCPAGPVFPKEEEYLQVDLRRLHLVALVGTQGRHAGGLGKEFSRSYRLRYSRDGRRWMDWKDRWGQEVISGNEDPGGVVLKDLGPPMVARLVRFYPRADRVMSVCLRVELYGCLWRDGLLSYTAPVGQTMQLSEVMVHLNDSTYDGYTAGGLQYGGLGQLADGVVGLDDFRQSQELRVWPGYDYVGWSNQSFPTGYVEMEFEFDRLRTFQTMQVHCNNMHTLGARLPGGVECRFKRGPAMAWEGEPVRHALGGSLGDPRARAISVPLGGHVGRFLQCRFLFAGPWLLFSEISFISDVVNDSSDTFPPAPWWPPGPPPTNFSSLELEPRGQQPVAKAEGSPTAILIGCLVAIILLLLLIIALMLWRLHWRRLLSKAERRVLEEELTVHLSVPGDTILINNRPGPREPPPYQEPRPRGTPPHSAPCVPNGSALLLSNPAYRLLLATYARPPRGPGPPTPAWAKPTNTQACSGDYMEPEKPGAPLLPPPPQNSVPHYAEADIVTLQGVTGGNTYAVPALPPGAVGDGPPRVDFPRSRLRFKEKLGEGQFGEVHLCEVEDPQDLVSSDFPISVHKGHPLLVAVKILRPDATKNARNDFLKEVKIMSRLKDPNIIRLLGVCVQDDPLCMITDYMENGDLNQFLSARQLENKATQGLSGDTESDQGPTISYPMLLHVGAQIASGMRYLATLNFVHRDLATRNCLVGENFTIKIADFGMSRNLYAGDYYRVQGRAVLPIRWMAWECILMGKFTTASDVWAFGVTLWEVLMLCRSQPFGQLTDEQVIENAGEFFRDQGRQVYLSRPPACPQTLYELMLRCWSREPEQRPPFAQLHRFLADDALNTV

T2: mouse ECD-DDR1-Fc (mouse; human, UniProt Q03146 22-414)
T2 construct: also called mouse DDR1-ECD; wild-type mouse DDR1-ECD; not shown: human IgG1 Fc of the vector pFuse-hIgG1-Fc1 (Invivogen)
T2 sequence: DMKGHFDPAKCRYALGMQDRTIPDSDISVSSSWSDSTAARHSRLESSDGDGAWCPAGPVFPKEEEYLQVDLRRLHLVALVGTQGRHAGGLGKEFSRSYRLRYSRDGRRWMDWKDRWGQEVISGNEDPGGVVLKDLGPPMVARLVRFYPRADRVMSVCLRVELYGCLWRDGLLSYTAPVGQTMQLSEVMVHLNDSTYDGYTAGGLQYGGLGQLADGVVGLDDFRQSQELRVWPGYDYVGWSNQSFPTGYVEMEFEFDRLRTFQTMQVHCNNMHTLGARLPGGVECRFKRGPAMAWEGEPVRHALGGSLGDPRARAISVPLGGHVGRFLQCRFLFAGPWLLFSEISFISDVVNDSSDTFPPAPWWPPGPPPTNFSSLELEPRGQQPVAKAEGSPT

B1: AB2078 (antibody, V domains shown)
VH: EIQLQQSGPELVNPGASVKVSCKASGYSFTDYNMYWVKQSHGKSLEWIGYIDPYNGGTSYNQKFKGKATLTVDKSSSTAFMHLNSLTSEDSAVYYCAREYYGSRLWYFDVWGAGTAVTVSS
VL: DIVMTQSPSSLAMSVGQKVTMSCKSSQSLLNRNNQKNYLAWYQQKPGQSPKLLVYFASTRESGVPDRFIGSGSGTDFTLTLSSVRAEDLAENFCQQHYSTPFTFGSGTRLEIKR
notes: mouse hybridoma mAb
B2: AB2004 (antibody, V domains shown)
VH: DVHLQESGPDLVKPSQSLSLTCTVTDYSITSGYGWHWIRQFPGNKLEWMGYIHYGGSTKYNSSLKSRISITRDTSKNQFFLQLKSVTTDDTGTYYCATSGNYGFAYWGQGTLVTVSA
VL: DIVLTQSPTSLAVSLGQRATMSCRASESVDDYGTSFMHWYQQKPGQPPKLLIYRASNLESGIPARFSGSGSRADFTLSINPVEPDDVATYYCQQSNEDPFTFGSGTKLEIKR
notes: mouse hybridoma mAb
B3: AB2041 (antibody, V domains shown)
VH: QVQLHQSGSELAKPGASVKMSCKASGYIFTTYWIHWLKQRPGQGLEWIGFINPDTDYTEYNQKFKDKATLTADKSSNTAYVQLSSLTSEDSAVYYCARGNYGYDGLVYWGLGTLVTVSA
VL: SIVMTQTPKFLLVSAGDRVTITCKASQSVSTDVAWYQQKPGQSPKLLIYYASNRYTGVPDRFTGSGYGTDFTFTISTVQAEDLAVYFCQQDYNSYTFGGGTKLEIKR
notes: mouse hybridoma mAb
B4: AB2092 (antibody, V domains shown)
VH: QIQLVQSGPELKKSGETVKISCKASGYTFTDYGMNWVKQAPGKGLKWMGWINTYTGKSTYADDFKGRFAFSLETSASTTYLQITNLKNEDMATYFCARWADYFGSSYLFASWGQGTLVTVSA
VL: DVLMTQTPLSLPVSLGDQASISCRSSQSIVHSDGNTYLEWYLQKPGQSPKLLIYKVSNRFSGVPDRFSGSGSGTDFTLKISRVEAEDLGIYYCFQGSHVPWTFGGGTKLEIKR
notes: mouse hybridoma mAb
B5: AB2039 (antibody, V domains shown)
VH: EVQLVESGGGLVQPGGSLKFSCAASGFTFSSYGMSWVRQTPDKRLELVAIINSHGFSTYYPDSVKGRFTISRDNAKNTLYLQMSSLKSEDTAIYYCARGGYGNYGMDYWGQGTSVTVSS
VL: DIVLTQSPASLAVSLGQRATISCRASESVDSYGNSFMHWYQQKVGQPPKLLIFRASNIESGIPARFSGSGSRTDFTLTINSVEADDVATYYCQQSNEAPYTFGGGTKLEIKR
notes: mouse hybridoma mAb; also called AB0039
B6: AB2010 (antibody, V domains shown)
VH: QVQLKQSGPGLVQPSQSLSITCTVSGFSFTGYGIHWVRQSPGKGLEWLGVIWSGGITDYNAAFISRLSISMDSSKGQVFFKMNSLQANDTAIYYCARRSTTVVADYAMDYWGQGTSVTVSS
VL: SIVMTQTPKFLLVSAGDRVTITCKASQSVSNDVAWYQQKPGQSPKLLIYYASNRYTGVPDRFTGSGYGTDFTFTINTVQAEDLAVYFCQQDYTSPLTFGAGTKLELKR
notes: mouse hybridoma mAb

The target in one test is T3, DDR1ECD-Fc (R&D Systems, Catalog #2396-DR) (human, UniProt Q08345 21-416).
T3 construct: range 21-416; construct as described for the bought immunogen; also called human ECD-DDR1-Fc; Fc-ECD-DR1; not shown: human IgG1, Pro100-Lys330
T3 sequence (Q08345 other isoform, or with tags, fused parts or gaps limits assumed): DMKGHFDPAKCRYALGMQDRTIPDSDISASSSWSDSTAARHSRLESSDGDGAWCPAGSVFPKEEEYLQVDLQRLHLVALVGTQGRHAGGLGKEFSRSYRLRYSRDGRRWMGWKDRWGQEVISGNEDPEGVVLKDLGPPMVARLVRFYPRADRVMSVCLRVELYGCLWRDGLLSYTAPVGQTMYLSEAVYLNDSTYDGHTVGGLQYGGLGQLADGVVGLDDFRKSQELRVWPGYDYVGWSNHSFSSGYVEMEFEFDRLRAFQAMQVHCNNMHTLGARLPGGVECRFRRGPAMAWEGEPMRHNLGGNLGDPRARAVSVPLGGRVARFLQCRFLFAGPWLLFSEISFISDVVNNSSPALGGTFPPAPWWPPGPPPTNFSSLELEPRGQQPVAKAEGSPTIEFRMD
The test can be described thus: ELISA.
For the molecule B1, the Kd amounted to 0.374 nM.

On to B2, for which the Kd worked out at 0.154 nM.

Regarding B3, the Kd was determined as 0.561 nM.

The molecule B4 came in with a Kd of 0.287 nM.

B5: the Kd was 0.346 nM.

The target in another test is DDR1 with a ProLink Tag (PK) in engineered U20S cells (DiscoveRx), Q08345. The test can be described thus: cell-based or functional assay.
Molecule B2 showed a Mean EC50, DDR1 Tyr513 phosphorylation assay (U20S) of 1.85 nM.

As for B3, the Mean EC50, DDR1 Tyr513 phosphorylation assay (U20S) is 2.65 nM.

For the molecule B4, the Mean EC50, DDR1 Tyr513 phosphorylation assay (U20S) turned out to be 2.45 nM.

Take B6: the Mean EC50, DDR1 Tyr513 phosphorylation assay (U20S) is 7.6 nM.

Turning to B5, the Mean EC50, DDR1 Tyr513 phosphorylation assay (U20S) worked out at 1.1 nM.

In a further test the target is DDR1 stably over-expressed in HCT-116 tumor cells, Q08345. The test can be described thus: cell-based or functional assay.
On to B2, for which the EC50, NFkB luciferase reporter (HCT-116, collagen II) came to 3.7 nM; the EC50, collagen-mediated relocalization of DDR1 (HCT-116) was found to be 1.4 nM; the EC90, NFkB luciferase reporter (HCT-116, collagen II) turned out to be 6.95 nM.

Take B3: the EC50, NFkB luciferase reporter (HCT-116, collagen II) came to 1.12 nM; the EC50, collagen-mediated relocalization of DDR1 (HCT-116) was determined as 2.2 nM; the EC90, NFkB luciferase reporter (HCT-116, collagen II) was 4.17 nM.

Molecule B4 registered an EC50, NFkB luciferase reporter (HCT-116, collagen II) of 1.13 nM and an EC90, NFkB luciferase reporter (HCT-116, collagen II) of 4.73 nM.

Turning to B5, the EC50, NFkB luciferase reporter (HCT-116, collagen II) was 1.63 nM; the EC50, collagen-mediated relocalization of DDR1 (HCT-116) was 0.45 nM; the EC90, NFkB luciferase reporter (HCT-116, collagen II) came to 4.61 nM.

The next test has as its target DDR1 endogenously expressed on human cancer cell lines (T47D, HCT-116, A431) (human) (UniProt Q08345). The test can be described thus: cell-based or functional assay.
Consider B1, for which the EC50, DDR1 phospho-specific ELISA (T47D) was found to be 0.39 nM; the EC50, cluster formation assay (A431 cells) came to 1.82 nM; the Maximal inhibition, DDR1 phospho-specific ELISA (T47D) was determined as 100%; the NPI of cluster formation at 66 nM (A431 cells) came out at 123%.

As to B2, the EC50, DDR1 phospho-specific ELISA (T47D) stood at 0.43 nM; the EC50, cluster formation assay (A431 cells) came out at 2.28 nM; the Maximal inhibition, DDR1 phospho-specific ELISA (T47D) was 100%; the NPI of cluster formation at 66 nM (A431 cells) was found to be 110%.

B6 gave an EC50, DDR1 phospho-specific ELISA (T47D) of 0.63 nM; an EC50, cluster formation assay (A431 cells) of 4.84 nM; a Maximal inhibition, DDR1 phospho-specific ELISA (T47D) of 100%; an NPI of cluster formation at 66 nM (A431 cells) of 108%.

B5 displayed an EC50, DDR1 phospho-specific ELISA (T47D) of 0.43 nM; an EC50, cluster formation assay (A431 cells) of 0.93 nM; a Maximal inhibition, DDR1 phospho-specific ELISA (T47D) of 100%; an NPI of cluster formation at 66 nM (A431 cells) of 103%.

The target in another test is human DDR1 (isoform B) stably expressed on HEK293 cells (human) (UniProt Q08345). The test can be described thus: flow cytometry, HEK293/human DDR1, normalized to empty-vector cells.
Consider B1, for which the MFI was determined as 7490 MFI.

Turning to B2, the MFI came out at 14400 MFI.

As to B3, the MFI was 12500 MFI.

The molecule B4 gave an MFI of 6020 MFI.

Molecule B5 yielded an MFI of 8020 MFI.

A further test addresses T1, mouse DDR1 stably expressed on HEK293 …. The test is described as follows: flow cytometry, column without head (taken as HEK293/mouse DDR1). The protocol:
Additional monoclonal antibodies were obtained from individual hybridomas in Example 1 and were characterized for their properties.
Cells were cultured in DMEM with 10% FBS and 0.8 mg/mL hygromycin. When cells reached 60-80% confluence, they were centrifuged at 1,200 rpm for 5 minutes, suspended in FACS buffer (1×PBS, 1% BSA), and aliquoted into a 96-well plate at 1×10⁶ cells per well. The anti-DDR1 monoclonal antibodies or appropriate isotype controls at 2 μg per 1×10⁶ cells were added and incubated at 4° C. for 1 hr. The cells were washed twice with FACS buffer then stained with the anti-IgG-PE secondary antibody at 10 μL per well at 4° C. for 1 hr. The cells were washed again and measured for the MFI values or signals using flow cytometry (LSR Fortessa instrument, BD Biosciences). Background MFI signals from vector-only cells (i.e. no DDR1 or DDR2 expression) was subtracted from those of the cells treated with antibodies. Higher MFI values or signals indicated increased binding or specificity of the anti-DDR1 antibodies to the DDR1 on the cell surface.
Take B1: the MFI is 24200 MFI.

Take B2: the MFI came out at 9500 MFI.

Molecule B4 displayed an MFI of 22800 MFI.

B6 returned an MFI of 7140 MFI.

B5: the MFI turned out to be 10500 MFI.

Another test deals with T2, mouse ECD-DDR1-Fc. The test can be described thus: ELISA, coated antigen, apparent KD. The method in brief:
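Plates coated overnight at 4° C with 2 μg/mL purified tagged DDR1 ECD protein, BSA-blocked; serially diluted murine anti-DDR1 mAbs bound 1 hr at room temperature, detected with anti-mouse IgG-HRP and TMB (OD 450). Apparent KD taken as C-parameter of 4-parameter logistic fit of OD versus antibody concentration.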
For orientation: In an ELISA, binding on a coated surface is turned into a signal by an enzyme label.
For the molecule B1, the Kd was 10.9 nM.

Consider B4, for which the Kd is 1.19 nM.

For the molecule B6, the Kd came to 33.7 nM.

Take B5: the Kd was found to be 2.37 nM.
